The source of these data is PMC9070667, “Molecular insights into RNA recognition and gene regulation by the TRIM-NHL protein Mei-P26”.

Data set [1] addresses T1, Mei-P26 NHL wt (Drosophila melanogaster (Oregon-R), UniProt M9PH32 908-1206).
T1 sequence: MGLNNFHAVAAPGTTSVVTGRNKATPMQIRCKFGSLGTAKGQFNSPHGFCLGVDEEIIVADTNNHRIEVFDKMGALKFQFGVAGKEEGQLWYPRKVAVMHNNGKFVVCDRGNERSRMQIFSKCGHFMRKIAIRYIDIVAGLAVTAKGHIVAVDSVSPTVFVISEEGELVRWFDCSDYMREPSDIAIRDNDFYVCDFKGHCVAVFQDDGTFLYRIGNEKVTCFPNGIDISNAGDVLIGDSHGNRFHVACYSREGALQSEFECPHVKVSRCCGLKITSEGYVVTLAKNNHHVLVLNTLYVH
The data set can be described thus: EMSA; MST: 20 mM Hepes/KOH pH 7.5, 100 mM NaCl, 5 mM MgCl2, 5 mM DTT, 0.0125% Tween 20, 25 C (Brat: 20 mM Tris 8.0, 150 mM NaCl, 1 mM MgCl2, 5 mM DTT, 0.0125% Tween 20). EMSA, 1:1 mix, 4 C: RNA in 10 mM Tris pH 7.4, 50 mM KCl, 1 mM EDTA, 1 mM DTT, 0.4 mg/ml yeast tRNA; protein in 20 mM Hepes pH 7.5, 5 mM DTT, 100 mM (wt) or 300 mM (mutants) NaCl, 5% glycerol. The conditions noted are these: protein: recombinant, tags: GST removed by TEV. Background: In EMSA bound probe runs differently from free probe, usually more slowly.

In data set [2] the target is T2, Mei-P26 NHL RKR (Drosophila melanogaster (Oregon-R), UniProt M9PH32 908-1206, R1150A;K1172A;R1175A).
T2 sequence: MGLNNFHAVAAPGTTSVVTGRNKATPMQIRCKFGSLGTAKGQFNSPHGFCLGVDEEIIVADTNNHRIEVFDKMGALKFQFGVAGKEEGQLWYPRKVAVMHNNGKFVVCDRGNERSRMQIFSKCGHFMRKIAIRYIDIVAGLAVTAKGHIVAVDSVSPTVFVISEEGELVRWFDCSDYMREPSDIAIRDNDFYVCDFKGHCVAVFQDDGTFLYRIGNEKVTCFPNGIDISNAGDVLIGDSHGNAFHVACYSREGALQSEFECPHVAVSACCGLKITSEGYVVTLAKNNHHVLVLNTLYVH
The data set is described as above. The conditions noted are these: protein: recombinant; tags: GST removed by TEV; label: 32P.

Data set [3] concerns the target T1, Mei-P26 NHL wt. The data set can be described thus: MST; MST: 20 mM Hepes/KOH pH 7.5, 100 mM NaCl, 5 mM MgCl2, 5 mM DTT, 0.0125% Tween 20, 25 C (Brat: 20 mM Tris 8.0, 150 mM NaCl, 1 mM MgCl2, 5 mM DTT, 0.0125% Tween 20). EMSA, 1:1 mix, 4 C: RNA in 10 mM Tris pH 7.4, 50 mM KCl, 1 mM EDTA, 1 mM DTT, 0.4 mg/ml yeast tRNA; protein in 20 mM Hepes pH 7.5, 5 mM DTT, 100 mM (wt) or 300 mM (mutants) NaCl, 5% glycerol. To be noted: protein: recombinant, tags: GST removed by TEV.

The target in data set [4] is T2, Mei-P26 NHL RKR. Described as above. The conditions noted are these: protein: recombinant; tags: GST removed by TEV; label: Cy5.
The target in data set [5] is T3, Brat NHL (Drosophila melanogaster, UniProt Q8MQJ9 756-1037).
T3 sequence: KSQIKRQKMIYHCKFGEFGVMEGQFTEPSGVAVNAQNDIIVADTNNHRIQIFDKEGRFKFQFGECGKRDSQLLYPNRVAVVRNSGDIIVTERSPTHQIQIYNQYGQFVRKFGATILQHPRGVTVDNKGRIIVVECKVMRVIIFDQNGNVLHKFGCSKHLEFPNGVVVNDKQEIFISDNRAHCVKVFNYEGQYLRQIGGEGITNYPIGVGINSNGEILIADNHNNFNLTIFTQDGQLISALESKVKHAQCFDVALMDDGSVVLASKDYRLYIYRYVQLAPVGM
The data set is described as above. To be noted: protein: recombinant; tags: His6-ubiquitin fusion (pHUE); label: Cy5.

Data set [6] concerns the target T4, Mei-P26 NHL R1175A (Drosophila melanogaster (Oregon-R), UniProt M9PH32 908-1206, R1175A).
T4 sequence: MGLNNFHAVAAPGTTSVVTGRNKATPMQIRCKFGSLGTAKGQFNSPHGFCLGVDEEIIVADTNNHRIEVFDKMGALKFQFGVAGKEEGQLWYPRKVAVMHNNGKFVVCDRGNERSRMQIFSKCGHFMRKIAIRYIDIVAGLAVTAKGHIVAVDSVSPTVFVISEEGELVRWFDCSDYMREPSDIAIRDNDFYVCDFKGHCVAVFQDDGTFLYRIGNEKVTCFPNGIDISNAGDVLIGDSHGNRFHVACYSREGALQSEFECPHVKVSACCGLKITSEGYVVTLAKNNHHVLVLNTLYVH
Briefly: MST; minor influence of the mutation; MST: 20 mM Hepes/KOH pH 7.5, 100 mM NaCl, 5 mM MgCl2, 5 mM DTT, 0.0125% Tween 20, 25 C (Brat: 20 mM Tris 8.0, 150 mM NaCl, 1 mM MgCl2, 5 mM DTT, 0.0125% Tween 20). EMSA, 1:1 mix, 4 C: RNA in 10 mM Tris pH 7.4, 50 mM KCl, 1 mM EDTA, 1 mM DTT, 0.4 mg/ml yeast tRNA; protein in 20 mM Hepes pH 7.5, 5 mM DTT, 100 mM (wt) or 300 mM (mutants) NaCl, 5% glycerol. The conditions noted are these: protein: recombinant; tags: GST removed by TEV; label: Cy5 (MST); 32P (EMSA).

B1: LanA (ssRNA)
RNA: AUCCUUUUUAAAACUCC
Regarding B1, the binding result in data set [1] (label: 32P) was “binds”; in data set [2] it was “no binding”.

B2: Col4a1 (ssRNA)
RNA: GCCAUUUUUUAUCUGCCA
Turning to B2, the binding result in data set [1] (label: 32P) is listed as “binds”; in data set [2], “no binding”.

B3: Mlc-c (ssRNA)
RNA: GGUCUUUUUACAAAAG
Turning to B3, the binding result in data set [1] (label: 32P) is “binds”; in data set [2] it was “no binding”.

B4: dsRNA hairpin (Lin41 SEQ) (structured_RNA)
RNA: GGAGUCCAACUCC
In the case of B4, the binding result in data set [3] (label: Cy5 (MST), 32P (EMSA), hairpin) is recorded as “no binding”.

B5: BRATmut (ssRNA)
RNA: UUUUUAA
As for B5, in data set [3] (label: Cy5), the binding result is listed as “binds”.

B6: DNA (ssDNA)
DNA: TTTTACA
B6: in data set [3] (label: Cy5 (MST), 32P (EMSA)), the binding result is recorded as “no binding”.

B7: SEQ44U (ssRNA)
RNA: UUUUACAA
As for B7, the binding result in data set [3] (label: Cy5) is recorded as “binds”.

B8: U7 (SEQ1) (ssRNA)
RNA: UUUUUUU
As usually defined, the Kd is the equilibrium constant for the complex coming apart. B8: the dissociation constant Kd in data set [3] (label: Cy5) stood at 1800 ± 200 nM.

B9: SEQ3 (ssRNA)
RNA: UUUUACA
In the case of B9, in data set [3] (label: Cy5), the Kd came to 1700 nM. In addition, the binding result in data set [4] is “no binding”.

B10: BRAT1 (ssRNA)
RNA: UUGUUAA
Regarding B10, the binding result in data set [5] is “binds”.

B11: U9 (ssRNA)
RNA: UUUUUUUUU
Consider B11, for which the binding result is listed as “binds” in data set [6] and “binds” in data set [1] (label: Cy5 (MST), 32P (EMSA)).

B12: SEQ2 (ssRNA)
RNA: AUUUACA
For the molecule B12, the binding result in data set [3] (label: Cy5) was “binds”.

B13: SEQ5 (ssRNA)
RNA: UUUUUAC
On to B13, for which the binding result in data set [3] (label: Cy5) is “binds”.

B14: Hrb27C (ssRNA)
RNA: AGUAAUUUUUUCUAUUAAAGU
On to B14, for which the binding result in data set [1] (label: 32P) is reported as “binds”; in data set [2], “no binding”.

B15: lost (ssRNA)
RNA: CCCUUUUUUUAUACACAA
For B15, the binding result is reported as “binds” in data set [1] (label: 32P) and “no binding” in data set [2].
